From the nanobody polyreactivity screen of Harvey et al. (2022)

Test: yeast display, Sf9 membrane polyspecificity reagent, FACS + sequencing; frameworks hold sequencing errors
Summary of the method: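 Synthetic nanobody libraries on Saccharomyces cerevisiae BJ5465 were galactose-induced for 36–48 hours, stained 1 hour at 4 °C with 10% biotinylated, detergent-solubilized Sf9 membrane reagent and enriched on streptavidin microbeads. FACS then separated cells into low and high (top ~1%) gates by anti-HA (expression) and streptavidin (reagent binding) fluorescence. Genes were colony-PCR amplified, MiSeq 2 × 250 sequenced and CDR-length filtered. A clone's polyreactivity label is that of its gate of origin.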

Sequence	polyreactivity (PSR sort gate)
QVQLVESGGGLVQAGGSLRLSCAASGRTFYANAMGWYRQAPGKERELVAAITYRGGSTNYADSVKGRFTISRDNAKNTVYLQMNSLKPEDTAVYYCAKVYNPNYLWYLTYGYDYWGQGTQVTVSS	low polyreactivity
QVQLVESGGGLVQAGGSLRLSCAASGRTFYANVMGWYRQAPGKERELVAAITSGGSSYYADSVKGRFTISRDTAKNTVYLQMNSLKPDDTAVYYCAAGSNLNGVWFDYWGQGTQVTVSS	low polyreactivity
QVQLVESGGGLVQAGGSLRLSCAASGRTFYDYAMGWYRQAPGKERELVAAITSGGSTNYADSVKGRFTISRDNAKNTVYLQMNSLKPEDTAGYYCAADDFYVWGFDMNYWGQGTQVTVSS	high polyreactivity
QVQLVESGGGLVQAGGSLRLSCAASGRTFYDYDMGWYRKAPGKERELVAAISGGDSTYYADSVKGRFTISRDNAKNTVFLQMNSLKPEDTAVYYCAVTPRGLPYGAYLLYYWGQGTQVTVSS	low polyreactivity
QVQLVESGGGLVQAGGSLRLSCAASGRTFYEYAKGWYRQAPGKERELVAGITSGGSTNYADSVKGRFTISRDNEKNTVYLQMNSLKPEDTAVYYCAASYWGYEYDYWGQGTQVTVSS	low polyreactivity
QVQLVESGGGLVQAGGSLRLSCAASGRTFYEYAMGCYIPAPGKERELVAAITSGGTTYYADSVKGRFTISRDTAKNTVYLQMNSVKPEDTAVYYCAADRYYYYWGQGTQVTVSS	high polyreactivity
QVQLVESGGGLVQAGGSLRLSCAASGRTFYFNAMGWYRQAPGKERELVAAISGGGRTYYADSVKGRFTISRDNAKNTVYLQMNSLKPEDTAVYYCNVRRWYTYPLEKSNYWGQGTQVTVSS	high polyreactivity
QVQLVESGGGLVQAGGSLRLSCAASGRTFYFYAMGWYRQAPGKERELVAAITSRVGRTYYADSVKGRFTISRDNAKNTVYLQMNSLKPEDTAVYYCAAEGVYRMGYWGQGTQVTVSS	high polyreactivity
QVQLVESGGGLVQAGGSLRLSCAASGRTFYFYAMGWYRQAPGKERELVASITSSGGNTYYADSVKGRFTISRDNAKNTVYLQMNSLKPEDTAVYYCAARWFPWLQWKRYDYWGQGTQVTVSS	low polyreactivity
QVQLVESGGGLVQAGGSLRLSCAASGRTFYFYVMGWYRQAPGKERELVARISWSGGSTYYADSVKGRFTISRDNAKNTVYLQMNSLKPEDTAVYYCARQYKYPSSGEYDSWGQGTQVTVSS	low polyreactivity
QVQLVESGGGLVQAGGSLRLSCAASGRTFYGNAMGWYRQAPGKERELVAAITFRTSSTYYADSVKGRFTISRDYAKNTVYLQMNSLKPDDTAVFYCAALWIYSGWRYDYWGQGTQVTVSS	high polyreactivity
QVQLVESGGGLVQAGGSLRLSCAASGRTFYGNAMGWYRQAPGKERELVAGITRGGSTYYADSVKGRFTISRDNAKITVYLQMNSLKPEDTAVYYCAARAYYARFLMGYWGQVTQVTVSS	high polyreactivity
QVQLVESGGGLVQAGGSLRLSCAASGRTFYGYALGWYRQAPGKERELVAAISDDASTYYADSVKGRFTISRDNAKNTVYLQMNSLKPEDTAVYYCAAEPEWPYGRFDYWGQGTQVTVSS	high polyreactivity
QVQLVESGGGLVQAGGSLRLSCAASGRTFYGYAMGWSRQAPGKERELVAAISWTGGRTYYADSVKGRFTISRDNAKNTVFLQMNSLKPEDTAVYYCNARRRGDSGDGYIYGYWGQGTQVTVSS	high polyreactivity
QVQLVESGGGLVQAGGSLRLSCAASGRTFYGYAMGWYRQAPGKERELVAAISRRGGSTNYADSVKGRFTISRDNAKNSVYLQMNSLKPEDSAVYYCNANYYRTHYDYWGQGTQVTVSS	high polyreactivity
QVQLVESGGGLVQAGGSLRLSCAASGRTFYGYAMGWYRQAPGKERELVAAITRSGGSTYYADSVKGRFTISRDNAKNTVYLQMNSLKPEDTAVYYCAAGGQARHDNWGQGTQVTVSS	low polyreactivity
QVQLVESGGGLVQAGGSLRLSCAASGRTFYGYAMGWYRQAPGKERELVASIRQSAGRTYYADSVKGRFTISRDNAKNTVYLQMNSLKPEDTAVYYCAASIFLRSFYQQGNYWGQGTQVTVSS	high polyreactivity
QVQLVESGGGLVQAGGSLRLSCAASGRTFYGYTMGWYRQAPGKERELVAAIRTSGGSTYADSVKGRFTISRDNAKNTVYLQMNSLKPEDTAVYYCAAPRVVYYGTAPAYRYDYWGQGTQVTVSS	high polyreactivity
QVQLVESGGGLVQAGGSLRLSCAASGRTFYHYAMGWYRQAPGKERELVATITSSGGNTYYADSVKGRFTISRDNSKNTVYLQMNSLKPEDTEVYYCAADWFVYQYSFGSSEYYYWGQGTQVTVSS	low polyreactivity
QVQLVESGGGLVQAGGSLRLSCAASGRTFYIYAMGWYRQAPGKERELVAAITWSGGSSTYYADSVKGRFTISRDNAKNTVYLQMNSLKPEDTAVYYCAAETHYYWYEQYDYWGQGTQVTVSS	high polyreactivity
QVQLVESGGGLVQAGGSLRLSCAASGRTFYIYTMGWYRQAPGKERELVAAISGRGGRTYYADSVKGSFTISRDNAKNTVYLQMNSLKPEDTAVYYCARGGRVRYDYWGQGTQVTVSS	low polyreactivity
QVQLVESGGGLVQAGGSLRLSCAASGRTFYKNAMGWYRQAPGKERELVAAISQRGGGTYYADSVKGRFTISRDNAKNTVYLQMNSLKPEDTAVYYCNAPLVFIHGSDYWGQGTQVTVSS	high polyreactivity

Sequence	polyreactivity (PSR sort gate)
QVQLVESGGGLVQAGGSLRLSCAASGRTFYKNAMGWYRQAPGKERELVAAISYGGGSTYYADSVKGRFTISRDNAKNTVYLQMISLKPEDTAVYYCATQLPFRKPWHDYWGQGTQVTVSS	high polyreactivity
QVQLVESGGGLVQAGGSLRLSCAASGRTFYKNAMGWYRQAPGKERELVARISRGGSTNYADSVKGRFTISRDNAKNTVYLQMYSVKPEESAVYYCATEYGTHGKTYDYWGQGSQVTVSS	high polyreactivity
QVQLVESGGGLVQAGGSLRLSCAASGRTFYKNTMGWYRQAPGKERELVATISQRGGSTYYADSVKGRFTISRDNAKNTVYLQMNSLKPEDTAVYYCNARRTSYTSQGYDYWGQGTQVTVSS	high polyreactivity
QVQLVESGGGLVQAGGSLRLSCAASGRTFYKYAMGWYRQAPGKERELVAAISSRGGRTYYADSVKGRFTISRDNATNTVYLQMNSLKPEDTAVYYCAAKGRPDGKYDYWGQGTQVTVSS	high polyreactivity
QVQLVESGGGLVQAGGSLRLSCAASGRTFYKYGMGWYRQAPGKERELVARINSNGGSTYYADSVKGRFTISRDNAKNTVYLQMNSLKPADTAVYYCARSYVRSYGYYYWGQGPQVTVSS	low polyreactivity
QVQLVESGGGLVQAGGSLRLSCAASGRTFYKYGMGWYRQAPGKERELVASISSGGNTYYADSVKGRFTISRDNAKNTVYLQMNSLKPEDTAVYYCNAGYWAKFDYWGQGTQVTVSS	high polyreactivity
QVQLVESGGGLVQAGGSLRLSCAASGRTFYKYGMVLYRKAPGKERELVAAIRWSGGSTYYADSVKGRFTISRDNAKYTVYFQMNSLKPEDTAVYYCATRSGFGYGYWGQGTQVNVSS	high polyreactivity
QVQLVESGGGLVQAGGSLRLSCAASGRTFYLYAMGWYRPAPGKERELVAAITSGGSTNYADSVKGRFTISRDNAKNTVYLQMNSLKPEDTAVYYCNAYKRGYLYRYNYWGQGTQVTVSS	high polyreactivity
QVQLVESGGGLVQAGGSLRLSCAASGRTFYLYAMGWYRPAPGKERELVAAITWSGGSTYYADSVKGRFTISRYNAKNTVFLQMNSLKPEDTAVYYCAAGLYLFQIWFGNEYDYWGQGTQVTVSS	high polyreactivity
QVQLVESGGGLVQAGGSLRLSCAASGRTFYLYAMGWYRQAPGKERELVAAITRRGGSTYYADSVKGRFTISRDNAKNTVYLQMNSLKPEDTAVYYCAADRPGTGYSDYDYWGQGTQVTVSS	high polyreactivity
QVQLVESGGGLVQAGGSLRLSCAASGRTFYLYAMGWYRQAPGKVRELVAAITRRGGSPYYADSVKGRFTISRDNAKNTVYLQMNSLKPEDTAVSYCAADRPGTGYSDYDYWGQGTQVTVSS	high polyreactivity
QVQLVESGGGLVQAGGSLRLSCAASGRTFYLYARGWYRQAPGKERELVAAITRSGGSTYYADSVKGRFTISRDNAKNTVYLQMNSLKPEDTAVYYCAAYSYYGAGDRAYDYWGQGTQVTVSS	high polyreactivity
QVQLVESGGGLVQAGGSLRLSCAASGRTFYLYTMGWYRQAPGKERELVAAITRGGNTYYADSVKGRFTISRDNAKNTVYLQMNSLKPEDTAVYYCAAADYTTPVPYGRKGFDYWGQGTQVTVSS	low polyreactivity
QVQLVESGGGLVQAGGSLRLSCAASGRTFYNNAMGWYRPAPGKERELVAAISQRTGRTYYADSVKGRFTISRDNAKNTVYLQMNSLKPEDTAVYYCNKVAYYSRRMDYWGQGTQVTVSS	high polyreactivity
QVQLVESGGGLVQAGGSLRLSCAASGRTFYNYAMGWYRQAPGKERELVAAIRGSGGSTYYADSVKGRFTISRDNAKNTVYLQMNSLKPEETAVYYCNAVSQSSEYDYWGHGTQVTVSS	high polyreactivity
QVQLVESGGGLVQAGGSLRLSCAASGRTFYPNTMGWYRQAPGKERELVAAIRSSGGSTYYADSVKGRFTISRDNAKKTVYLQMNSLKPEDTAVYYCAAKGRSSYFYWFDYWGQGTQVTVSS	high polyreactivity
QVQLVESGGGLVQAGGSLRLSCAASGRTFYPYAMGWYRQAPGKEREFVAVINRSVGSPYYADSVNGRFTISRDNAKNTVYLQMNSLKPEDTAVYYCAAREPLSYYVGGDYWGQGTQVTVSS	low polyreactivity
QVQLVESGGGLVQAGGSLRLSCAASGRTFYPYAMGWYRQAPGKERELVAAINWRDGSTYYADSVKGRFTISRDNAKNTVYLQMNSLKPEDTAVYYCAADYYWWQYDYWGQGTQVTVSS	high polyreactivity
QVQLVESGGGLVQAGGSLRLSCAASGRTFYQYAMGWYRQARGKERELVAAISRRGGSTYYADSVKGRFTISRDNAKNTVYLQMNSLKPEDTAVYYCAARVRGKYDYWGQGTQVTVSS	high polyreactivity
QVQLVESGGGLVQAGGSLRLSCAASGRTFYRNAMGWSRQAPGKEREFVAVISVSGGSTYYADSVKGRFTISRDNAKNTVYLQMNSLKPEDTAVYYCAKRGPVRKTAYDYWGQGTQVTVSS	low polyreactivity
QVQLVESGGGLVQAGGSLRLSCAASGRTFYRNAMGWYRQAPGKERELVAAITRGGRTYYADSVKGRFTISRDNAKNTVYLQMNSLKPEDTAVYYCNAVSYSSTLASKIPDDYWGQGTQVTVSS	high polyreactivity
